Assay results taken from CN116262787A (BOAOXIN BIOTECHNOLOGY NANJING CO LTD, dated 2023).

Experiments:
[1] = molecular target: T1, 小鼠LAG-3-his (in-house, mouse LAG-3 Uniprot #Q61790, Gly24-Leu442) (mouse, UniProt Q61790 24-442); assay: indirect ELISA, coated mouse LAG-3-his
T1 construct: range 24-442; also called 鼠LAG-3蛋白; not shown: his tag
T1 sequence (looked up): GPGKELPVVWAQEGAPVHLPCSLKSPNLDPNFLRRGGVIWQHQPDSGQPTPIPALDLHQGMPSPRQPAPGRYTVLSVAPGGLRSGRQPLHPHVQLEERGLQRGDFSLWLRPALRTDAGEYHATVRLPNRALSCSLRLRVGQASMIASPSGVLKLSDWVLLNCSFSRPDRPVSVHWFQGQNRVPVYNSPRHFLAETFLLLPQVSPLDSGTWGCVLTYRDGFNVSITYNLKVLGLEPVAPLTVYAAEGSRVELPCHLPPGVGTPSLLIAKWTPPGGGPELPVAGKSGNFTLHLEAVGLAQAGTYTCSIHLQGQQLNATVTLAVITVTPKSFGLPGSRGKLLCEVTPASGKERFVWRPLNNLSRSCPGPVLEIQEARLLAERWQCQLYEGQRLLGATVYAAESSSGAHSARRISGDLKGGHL

[2] = molecular target: T2, 生物素标记的人LAG-3蛋白 (LAG-3-Fc-bio, cat#LA3-H82Fb, Acro) (human, UniProt P18627 23-450, biotin label (site not stated)); assay: capture ELISA: antibody captured on GAM-Fab/GAH-Fab, LAG-3-Fc-bio in solution, SA-HRP
T2 construct: Bought protein (Acro LA3-H82Fb); also called 人LAG-3-Fc-bio; not shown: Fc part of the bought fusion
T2 sequence (looked up): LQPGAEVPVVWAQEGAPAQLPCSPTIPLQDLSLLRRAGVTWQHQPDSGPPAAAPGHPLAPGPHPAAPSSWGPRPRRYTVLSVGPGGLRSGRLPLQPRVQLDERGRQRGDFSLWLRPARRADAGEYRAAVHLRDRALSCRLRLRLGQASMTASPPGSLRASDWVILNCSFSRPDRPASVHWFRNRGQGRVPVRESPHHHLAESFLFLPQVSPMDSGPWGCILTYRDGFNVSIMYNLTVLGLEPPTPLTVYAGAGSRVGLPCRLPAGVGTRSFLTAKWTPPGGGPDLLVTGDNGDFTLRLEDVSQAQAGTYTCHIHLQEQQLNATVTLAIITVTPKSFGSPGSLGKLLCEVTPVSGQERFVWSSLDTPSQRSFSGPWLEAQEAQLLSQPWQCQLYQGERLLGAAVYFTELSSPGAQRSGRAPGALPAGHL

[3] = molecular target: T3, 人LAG-3 on the surface of a stable 293T cell line overexpressing it (human, UniProt P18627 23-525); assay: flow cytometry on 293T cells overexpressing human LAG-3
T3 construct: whole, on cells; also called 表面过表达人LAG-3的293T细胞
T3 sequence (looked up): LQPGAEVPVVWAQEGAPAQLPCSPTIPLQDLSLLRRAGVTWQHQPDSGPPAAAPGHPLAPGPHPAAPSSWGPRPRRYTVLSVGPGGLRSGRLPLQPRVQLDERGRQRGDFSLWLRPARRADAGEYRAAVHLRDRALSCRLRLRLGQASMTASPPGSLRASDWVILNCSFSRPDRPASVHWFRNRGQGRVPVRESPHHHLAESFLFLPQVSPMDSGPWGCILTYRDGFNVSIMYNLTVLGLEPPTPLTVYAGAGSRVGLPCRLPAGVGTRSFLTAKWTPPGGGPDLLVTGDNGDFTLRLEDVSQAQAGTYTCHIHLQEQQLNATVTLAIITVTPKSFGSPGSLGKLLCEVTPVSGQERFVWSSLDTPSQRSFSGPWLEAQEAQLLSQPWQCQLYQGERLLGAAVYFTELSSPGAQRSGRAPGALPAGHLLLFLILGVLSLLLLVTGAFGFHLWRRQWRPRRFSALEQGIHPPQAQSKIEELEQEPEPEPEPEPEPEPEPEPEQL

B1: Relatlimab (BRISTOL-MYERS SQUIBB COMPANY, BMS), reference antibody, prepared in-house (antibody, human IgG4 S228P, kappa, V domains shown)
VH: QVQLQQWGAGLLKPSETLSLTCAVYGGSFSDYYWNWIRQPPGKGLEWIGEINHRGSTNSNPSLKSRVTLSLDTSKNQFSLKLRSVTAADTAVYYCAFGYSDYEYNWFDPWGQGTLVTVSS
VL: EIVLTQSPATLSLSPGERATLSCRASQSISSYLAWYQQKPGQAPRLLIYDASNRATGIPARFSGSGSGTDFTLTISSLEPEDFAVYYCQQRSNWPLTFGQGTNLEIKR
notes: also called 参照抗体; 参照抗体Relatlimab
B1: no binding (tested: from 66.7nM, serial 5-fold dilution) [1].

B2: 抗人LAG-3抗体G1A7 (mouse anti-human LAG-3 monoclonal antibody G1A7) (antibody, V domains shown)
VH: EVQLQQSGPVLVKPGASVKMSCKASGYTFTHYYMNWVKQSHGKSLEWIGVINPYNGDTSYKQNFKGKATLTVDKTSSTAYMDLNSLTSEDSAVYYCARDDGYYQWYFDVWGTGTTVTVSS
VL: DIQLTQSPSSLSASLGERVSLTCRASQDIGSRLIWLQQGPDGTIKRLIFATSSLDSGVPKRFSGSRSGSDYSLTISSLESEDFVDYYCLQCASSPPTFGGGTKLEIK
notes: Tested as the mouse monoclonal antibody purified from hybridoma culture; also called 本发明的抗体G1A7
B2: binds [2]; binds [3]; no binding (tested: from 66.7nM, serial 5-fold dilution) [1].
